Reference: patent US12065466B2, “Methods and compositions for protein sequencing” (Quantum-Si Incorporated, priority 2020, dated 2024)

B1: H. sapiens Fyn SH2 domain: SEQ ID NO: 116 (protein, listed as Homo sapiens)
chain: MGAMDSIQAEEWYFGKLGRKDAERQLLSFGNPRGTFLIRESETTKGAYSLSIRDWDDMKGDHVKHYKIRKLDNGGYYITTRAQFETLQQLVQHYSERAAGLSSRLVVPSHK
B2: Escherichia coli leucyl/phenylalanyl-tRNA-protein transferase: amino acid recognition protein, SEQ ID NO: 111 (protein, listed as Escherichia coli)
chain: MRLVQLSRHSIAFPSPEGALREPNGLLALGGDLSPARLLMAYQRGIFPWFSPGDPILWWSPDPRAVLWPESLHISRSMKRFHKRSPYRVTMNYAFGQVIEGCASDREEGTWITRGVVEAYHRLHELGHAHSIEVWREDELVGGMYGVAQGTLFCGESMFSRMENASKTALLVFCEEFIGHGGKLIDCQVLNDHTASLGACEIPRRDYLNYLNQMRLGRLPNNFWVPRCLFSPQELE
B3: PS629: UBR-box domain homolog, SEQ ID NO: 189 (protein, listed as Pichia pastoris)
chain: MCPNYKHHGRPCARQFKQGEPIYRCYECGFDETCVMCMHCFNREQHRDHEVSISIASSSNDGICDCGDPQAWNIELHCQSELD
B4: PS535: UBR-box domain homolog, SEQ ID NO: 163 (protein, listed as Mus musculus)
chain: MLCGRVFKVGEPTYSCRDCAVDPTCVLCMECFLGSIHRDHRYRMTTSGGGGFCDCGDTEAWKEGPYCQKHKL
B5: PS628: UBR-box domain homolog, SEQ ID NO: 188 (protein)
chain: MSHRAYHKNSPCGRIFRKGEPIHRCLTCGFDDTCALCSHCFQPEYHEGHKVHIGICQRENGGVCDCGDPEAWTQELFCPYAVD
modifications: Candida albicans
B6: PS522: UBR-box domain homolog, SEQ ID NO: 150 (protein, listed as Vombatus ursinus)
chain: MLCGKVFKSGETTYSCRDCAIDPTCVLCMNCFQSSVHKNHRYKMHTSTGGGFCDCGDTEAWKTGPFCTIHEP
B7: PS538: UBR-box domain homolog, SEQ ID NO: 166 (protein, listed as Saccharomyces cerevisiae)
chain: MGDVHKHTGRNCGRKFKIGEPLYRCHECGCDDTCVLCIHCFNPKDHVNHHVCTDICTEFTSGICDCGDEEAWNSPLHCKAEEQ
B8: PS505: UBR-box domain homolog, SEQ ID NO: 133 (protein, listed as Brachionus plicatilis)
chain: MVCGRVFKSGEPSYFCRECGTDPTCVLCSICFRHSKHRYHKYVMMTSGGGGYCDCGDPEAWKSDPCCELHMP

tested on: amino acid at a terminal position of a polypeptide; experiment: not given; conditions: Table 2; amino acid identity at a terminal position (phosphotyrosine also internal); inferred from literature and/or demonstrated by the inventors; cited from earlier work

Q: For B1, which “Binding Pref.” value is on record?
A: phospho-Y

Q: With B2 as the molecule, how does the “Binding Pref.” value read?
A: K, R

Q: For B3, which “Binding Pref.” value is on record?
A: K, R, H

Q: Which “Binding Pref.” value does the source give for B4 here?
A: K, R, H

Q: Which “Binding Pref.” value does the source give for B5 here?
A: K, R, H

Q: For B6, which “Binding Pref.” value is on record?
A: K, R, H

Q: With B7 as the molecule, how does the “Binding Pref.” value read?
A: K, R, H

Q: For B8, which “Binding Pref.” value is on record?
A: K, R, H

tested on: immobilized peptides containing N-terminal R, K or H; experiment: Biolayer interferometry of UBR-box domain homologs; format: binding; conditions: 14 peptides RXGGGDDDFFK (SEQ ID NO: 241)
Procedure: The amino acid binding properties of UBR-box domain homologs were evaluated by biolayer interferometry. Peptides containing an N-terminal arginine (R), followed by different amino acids in the penultimate position, were immobilized on a biolayer interferometry sensor surface, allowed to bind to UBR-box protein, and incubated in buffer to allow the UBR-box molecules to dissociate. […] FIG. 32C is a heatmap showing results measured for 24 UBR-box homologs against 14 polypeptides containing N-terminal R followed by different amino acids in the penultimate position.
UBR proteins bind to the basic N-terminal residues R, K, and H as part of the conserved N-end rule pathway. To identify high-affinity UBR proteins with properties favorable for use in sequencing, a diverse panel of uncharacterized UBR-box domain homologs from 44 species (PS501-PS544) was designed. UBR-box domain homologs were expressed, purified, and evaluated for binding to N-terminal amino acids by biolayer interferometry. Measurements were carried out at 30° C. for each protein for R, K and H binding. The amino-acid binding profile of each new homolog was first evaluated by biolayer interferometry using a single-point screening assay. All peptides in this screen contained a penultimate alanine (A) and consisted of the sequence XAKLDEESILKQK (SEQ ID NO: 238), where X is R, K, or H.
To evaluate the effect of penultimate amino acids on arginine binding, UBR box-domain homologs were evaluated for binding to 14 different peptides with N-terminal RX (peptide sequence: RXGGGDDDFFK (SEQ ID NO: 241)). The selected RX dipeptides are the 14 most frequently found in the human proteome.

Q: With B4 as the molecule, how does the “binding range for RX dipeptides” value read?
A: extensive binding range for RX dipeptides

Q: And the “dissociation rates with R dipeptides” value?
A: faster dissociation rates

Q: Which results are given for B6?
A: binding range for RX dipeptides: extensive binding range for RX dipeptides; dissociation rates with R dipeptides: faster dissociation rates

same assay, conditions: 14 polypeptides containing N-terminal R

Q: For B4, which “binding affinity to N-terminal R with different penultimate amino acids” value is on record?
A: high binding affinity to R in the presence of a wide range of penultimate amino acids

Q: Which “binding affinity to N-terminal R with different penultimate amino acids” value does the source give for B6 here?
A: high binding affinity to R in the presence of a wide range of penultimate amino acids

Q: Which “binding affinity to N-terminal R with different penultimate amino acids” value does the source give for B8 here?
A: high binding affinity to R in the presence of a wide range of penultimate amino acids

same assay, conditions: 30° C., XAKLDEESILKQK

Q: Which “binding to RA/KA/HA peptides (single-point screening)” value (shortened to “binding to RA/KA/HA peptides”) does the source give for B4 here?
A: favorable binding trajectories to RA and KA peptides with notably high response for RA peptide

Q: Which “binding to RA/KA/HA peptides” value does the source give for B6 here?
A: favorable binding trajectories to RA and KA peptides with notably high response for RA peptide

Q: Which “binding to RA/KA/HA peptides” value does the source give for B7 here?
A: favorable binding trajectories to RA and KA peptides with notably high response for RA peptide
